Data taken from PMC7092940 (2005).

Target: the molecule itself

B1: SARS 3CL proteinase (protein)
chain: SGFRKMAFPSGKVEGCMVQVTCGTTTLNGLWLDDTVYCPRHVICTAEDMLNPNYEDLLIRKSNHSFLVQAGNVQLRVIGHSMQNCLLRLKVDTSNPKTPKYKFVRIQPGQTFSVLACYNGSPSGVYQCAMRPNHTIKGSFLNGSCGSVGFNIDYDCVSFCYMHHMELPTGVHAGTDLEGKFYGPFVDRQTAQAAGTDTTITLNVLAWLYAAVINGDRWFLNRFTTTLNDFNLVAMKYNYEPLTQDHVDILGPLSAQTGIAVLDMCAALKELLQNGMNGRTILGSTILEDEFTPFDVVRQCSGVTFQ
Q: B1 was tested. Which Kd did it give?
A: The Kd was 14 µM.
